This assay concerns the target T1, human amylin receptor (human, UniProt P30988 25-474; O60896 24-148, limits assumed).
T1 construct: whole, on cells; Calcitonin receptor plus RAMP-3 gives the amylin 3(a) receptor; membranes of Amylin 3(a)/CRE-luc cells were used; also called hAmylin-R; hAmylinR
T1 sequence (looked up) 1: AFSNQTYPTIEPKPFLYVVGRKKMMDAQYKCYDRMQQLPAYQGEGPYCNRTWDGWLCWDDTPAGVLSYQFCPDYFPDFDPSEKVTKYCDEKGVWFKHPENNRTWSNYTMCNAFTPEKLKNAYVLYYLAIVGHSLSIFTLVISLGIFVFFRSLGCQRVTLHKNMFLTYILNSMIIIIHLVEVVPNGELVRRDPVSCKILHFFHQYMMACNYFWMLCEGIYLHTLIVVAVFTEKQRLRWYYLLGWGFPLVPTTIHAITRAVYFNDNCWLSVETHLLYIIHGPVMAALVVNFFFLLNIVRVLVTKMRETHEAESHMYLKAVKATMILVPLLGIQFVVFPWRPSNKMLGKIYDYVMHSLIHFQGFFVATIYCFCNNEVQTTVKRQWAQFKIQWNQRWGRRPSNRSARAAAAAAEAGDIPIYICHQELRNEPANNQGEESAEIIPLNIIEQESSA
T1 sequence (looked up) 2: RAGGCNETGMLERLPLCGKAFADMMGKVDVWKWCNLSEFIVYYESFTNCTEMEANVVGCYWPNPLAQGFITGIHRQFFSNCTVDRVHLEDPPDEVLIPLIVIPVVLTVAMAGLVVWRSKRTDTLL
The assay can be described thus: SPA competition binding, displacement of 125I-rat amylin from membranes with human amylin 3(a) receptor (Assay V). The method in brief: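 Membranes from BHK Amylin 3(a)/CRE-luc cells (35 ng/μL final) were mixed with SPA beads and test compounds in 50 mM Hepes pH 7.4 with 1 mM CaCl2, 5 mM MgCl₂, 0.1% OA and 0.02% Tween20. Incubation ran 120 min at 25° C with shaking; IC₅₀ came from one-site competition fitting.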
(In general: Displacement assays read how much labelled ligand stays bound in the presence of the test substance.)

Drawing on patent US20140087995A1 (published 2014), this text covers IC50 for seven molecules.

Numbered stars: 1 amine (or outer) side, 2 acyl side, 3 side chain; on linkers, the order of the positions; unused ones are H or OH. Bridge positions count the residues as written; N and C are the ends. Side chains are listed from the residue outwards. Ends that are not written are not given here. * marks the point of attachment. C20 diacid = O=C(O)CCCCCCCCCCCCCCCCCCC(=O)*; γGlu = O=C(O)[C@H](CCC(=O)[*:2])N[*:1]; AEEA = NCCOCCOCC(=O)O

B1: N^ε1-[2-[2-[2-[[(4S)-4-carboxy-4-(19-carboxynonadecanoylamino)butanoyl]amino]ethoxy]ethoxy]acetyl]-[Arg17,Pro21,Pro27,Glu35]-h-amylin (peptide)
peptide: K([AEEA-γGlu-C20 diacid])CNTATCATQRLANFLRHSSPNFGAIPSSTNVGSETY-NH2
modifications: disulfide 2-7; N-terminus assumed
SMILES: CC[C@H](C)[C@H](NC(=O)[C@H](C)NC(=O)CNC(=O)[C@H](Cc1ccccc1)NC(=O)[C@H](CC(N)=O)NC(=O)[C@@H]1CCCN1C(=O)[C@H](CO)NC(=O)[C@H](CO)NC(=O)[C@H](Cc1c[nH]cn1)NC(=O)[C@H](CCCNC(=N)N)NC(=O)[C@H](CC(C)C)NC(=O)[C@H](Cc1ccccc1)NC(=O)[C@H](CC(N)=O)NC(=O)[C@H](C)NC(=O)[C@H](CC(C)C)NC(=O)[C@H](CCCNC(=N)N)NC(=O)[C@H](CCC(N)=O)NC(=O)[C@@H](NC(=O)[C@H](C)NC(=O)[C@@H]1CSSC[C@H](NC(=O)[C@@H](N)CCCCNC(=O)COCCOCCNC(=O)CC[C@H](NC(=O)CCCCCCCCCCCCCCCCCCC(=O)O)C(=O)O)C(=O)N[C@@H](CC(N)=O)C(=O)N[C@@H]([C@@H](C)O)C(=O)N[C@@H](C)C(=O)N[C@@H]([C@@H](C)O)C(=O)N1)[C@@H](C)O)C(=O)N1CCC[C@H]1C(=O)N[C@@H](CO)C(=O)N[C@@H](CO)C(=O)N[C@H](C(=O)N[C@@H](CC(N)=O)C(=O)N[C@H](C(=O)NCC(=O)N[C@@H](CO)C(=O)N[C@@H](CCC(=O)O)C(=O)N[C@H](C(=O)N[C@@H](Cc1ccc(O)cc1)C(N)=O)[C@@H](C)O)C(C)C)[C@@H](C)O
notes: also called 17R, 21P, 27P, 35E
In general, IC50 refers to the concentration needed to halve the response being measured. A lower IC50 goes with greater potency in that assay. As for B1, the IC50 was determined as 532 pM.

B2: N^ε1-[2-[2-[2-[[(4S)-4-carboxy-4-(19-carboxynonadecanoylamino)butanoyl]amino]ethoxy]ethoxy]acetyl]-[Arg17,Pro21,Pro27,Pro29,Pro34]-h-amylin (peptide)
peptide: K([AEEA-γGlu-C20 diacid])CNTATCATQRLANFLRHSSPNFGAIPSPTNVGPNTY-NH2
modifications: disulfide 2-7; N-terminus assumed
SMILES: CC[C@H](C)[C@H](NC(=O)[C@H](C)NC(=O)CNC(=O)[C@H](Cc1ccccc1)NC(=O)[C@H](CC(N)=O)NC(=O)[C@@H]1CCCN1C(=O)[C@H](CO)NC(=O)[C@H](CO)NC(=O)[C@H](Cc1c[nH]cn1)NC(=O)[C@H](CCCNC(=N)N)NC(=O)[C@H](CC(C)C)NC(=O)[C@H](Cc1ccccc1)NC(=O)[C@H](CC(N)=O)NC(=O)[C@H](C)NC(=O)[C@H](CC(C)C)NC(=O)[C@H](CCCNC(=N)N)NC(=O)[C@H](CCC(N)=O)NC(=O)[C@@H](NC(=O)[C@H](C)NC(=O)[C@@H]1CSSC[C@H](NC(=O)[C@@H](N)CCCCNC(=O)COCCOCCNC(=O)CC[C@H](NC(=O)CCCCCCCCCCCCCCCCCCC(=O)O)C(=O)O)C(=O)N[C@@H](CC(N)=O)C(=O)N[C@@H]([C@@H](C)O)C(=O)N[C@@H](C)C(=O)N[C@@H]([C@@H](C)O)C(=O)N1)[C@@H](C)O)C(=O)N1CCC[C@H]1C(=O)N[C@@H](CO)C(=O)N1CCC[C@H]1C(=O)N[C@H](C(=O)N[C@@H](CC(N)=O)C(=O)N[C@H](C(=O)NCC(=O)N1CCC[C@H]1C(=O)N[C@@H](CC(N)=O)C(=O)N[C@H](C(=O)N[C@@H](Cc1ccc(O)cc1)C(N)=O)[C@@H](C)O)C(C)C)[C@@H](C)O
notes: also called 17R, 21P, 27P, 29P, 34P
Regarding B2, the IC50 was 49 pM.

B3: N^ε1-[2-[2-[2-[[(4S)-4-carboxy-4-(19-carboxynonadecanoylamino)butanoyl]amino]ethoxy]ethoxy]acetyl]-[Arg17,Pro21,Pro27,Pro31,His35]-h-amylin (peptide)
peptide: K([AEEA-γGlu-C20 diacid])CNTATCATQRLANFLRHSSPNFGAIPSSTPVGSHTY-NH2
modifications: disulfide 2-7; N-terminus assumed
SMILES: CC[C@H](C)[C@H](NC(=O)[C@H](C)NC(=O)CNC(=O)[C@H](Cc1ccccc1)NC(=O)[C@H](CC(N)=O)NC(=O)[C@@H]1CCCN1C(=O)[C@H](CO)NC(=O)[C@H](CO)NC(=O)[C@H](Cc1c[nH]cn1)NC(=O)[C@H](CCCNC(=N)N)NC(=O)[C@H](CC(C)C)NC(=O)[C@H](Cc1ccccc1)NC(=O)[C@H](CC(N)=O)NC(=O)[C@H](C)NC(=O)[C@H](CC(C)C)NC(=O)[C@H](CCCNC(=N)N)NC(=O)[C@H](CCC(N)=O)NC(=O)[C@@H](NC(=O)[C@H](C)NC(=O)[C@@H]1CSSC[C@H](NC(=O)[C@@H](N)CCCCNC(=O)COCCOCCNC(=O)CC[C@H](NC(=O)CCCCCCCCCCCCCCCCCCC(=O)O)C(=O)O)C(=O)N[C@@H](CC(N)=O)C(=O)N[C@@H]([C@@H](C)O)C(=O)N[C@@H](C)C(=O)N[C@@H]([C@@H](C)O)C(=O)N1)[C@@H](C)O)C(=O)N1CCC[C@H]1C(=O)N[C@@H](CO)C(=O)N[C@@H](CO)C(=O)N[C@H](C(=O)N1CCC[C@H]1C(=O)N[C@H](C(=O)NCC(=O)N[C@@H](CO)C(=O)N[C@@H](Cc1c[nH]cn1)C(=O)N[C@H](C(=O)N[C@@H](Cc1ccc(O)cc1)C(N)=O)[C@@H](C)O)C(C)C)[C@@H](C)O
notes: also called 17R, 21P, 27P, 31P, 35H
On to B3, for which the half-maximal inhibitory concentration (IC50) turned out to be 115 pM. Compared with the last molecule, the IC50 is about 2.3-fold higher.

B4: N^ε1-[2-[2-[2-[[(4S)-4-carboxy-4-(19-carboxynonadecanoylamino)butanoyl]amino]ethoxy]ethoxy]acetyl]-[Arg17,Pro21,Pro27,His34]-h-amylin (peptide)
peptide: K([AEEA-γGlu-C20 diacid])CNTATCATQRLANFLRHSSPNFGAIPSSTNVGHNTY-NH2
modifications: disulfide 2-7; N-terminus assumed
SMILES: CC[C@H](C)[C@H](NC(=O)[C@H](C)NC(=O)CNC(=O)[C@H](Cc1ccccc1)NC(=O)[C@H](CC(N)=O)NC(=O)[C@@H]1CCCN1C(=O)[C@H](CO)NC(=O)[C@H](CO)NC(=O)[C@H](Cc1c[nH]cn1)NC(=O)[C@H](CCCNC(=N)N)NC(=O)[C@H](CC(C)C)NC(=O)[C@H](Cc1ccccc1)NC(=O)[C@H](CC(N)=O)NC(=O)[C@H](C)NC(=O)[C@H](CC(C)C)NC(=O)[C@H](CCCNC(=N)N)NC(=O)[C@H](CCC(N)=O)NC(=O)[C@@H](NC(=O)[C@H](C)NC(=O)[C@@H]1CSSC[C@H](NC(=O)[C@@H](N)CCCCNC(=O)COCCOCCNC(=O)CC[C@H](NC(=O)CCCCCCCCCCCCCCCCCCC(=O)O)C(=O)O)C(=O)N[C@@H](CC(N)=O)C(=O)N[C@@H]([C@@H](C)O)C(=O)N[C@@H](C)C(=O)N[C@@H]([C@@H](C)O)C(=O)N1)[C@@H](C)O)C(=O)N1CCC[C@H]1C(=O)N[C@@H](CO)C(=O)N[C@@H](CO)C(=O)N[C@H](C(=O)N[C@@H](CC(N)=O)C(=O)N[C@H](C(=O)NCC(=O)N[C@@H](Cc1c[nH]cn1)C(=O)N[C@@H](CC(N)=O)C(=O)N[C@H](C(=O)N[C@@H](Cc1ccc(O)cc1)C(N)=O)[C@@H](C)O)C(C)C)[C@@H](C)O
notes: also called 17R, 21P, 27P, 34H
B4 returned an IC50 of 215 pM.

As to K([AEEA-γGlu-C20 diacid])CNTATCATQRLANFLRHSSPNFGAIPPSTPVGSNTY-NH2 (disulfide 2-7, also called 17R, 21P, 27P, 28P, 31P), the IC50 worked out at 52 pM.

B5: N^ε1-[2-[2-[2-[[(4S)-4-carboxy-4-(19-carboxynonadecanoylamino)butanoyl]amino]ethoxy]ethoxy]acetyl]-[Arg17,Pro21,Pro27,Pro28,Pro34]-h-amylin (peptide)
peptide: K([AEEA-γGlu-C20 diacid])CNTATCATQRLANFLRHSSPNFGAIPPSTNVGPNTY-NH2
modifications: disulfide 2-7; N-terminus assumed
SMILES: CC[C@H](C)[C@H](NC(=O)[C@H](C)NC(=O)CNC(=O)[C@H](Cc1ccccc1)NC(=O)[C@H](CC(N)=O)NC(=O)[C@@H]1CCCN1C(=O)[C@H](CO)NC(=O)[C@H](CO)NC(=O)[C@H](Cc1c[nH]cn1)NC(=O)[C@H](CCCNC(=N)N)NC(=O)[C@H](CC(C)C)NC(=O)[C@H](Cc1ccccc1)NC(=O)[C@H](CC(N)=O)NC(=O)[C@H](C)NC(=O)[C@H](CC(C)C)NC(=O)[C@H](CCCNC(=N)N)NC(=O)[C@H](CCC(N)=O)NC(=O)[C@@H](NC(=O)[C@H](C)NC(=O)[C@@H]1CSSC[C@H](NC(=O)[C@@H](N)CCCCNC(=O)COCCOCCNC(=O)CC[C@H](NC(=O)CCCCCCCCCCCCCCCCCCC(=O)O)C(=O)O)C(=O)N[C@@H](CC(N)=O)C(=O)N[C@@H]([C@@H](C)O)C(=O)N[C@@H](C)C(=O)N[C@@H]([C@@H](C)O)C(=O)N1)[C@@H](C)O)C(=O)N1CCC[C@H]1C(=O)N1CCC[C@H]1C(=O)N[C@@H](CO)C(=O)N[C@H](C(=O)N[C@@H](CC(N)=O)C(=O)N[C@H](C(=O)NCC(=O)N1CCC[C@H]1C(=O)N[C@@H](CC(N)=O)C(=O)N[C@H](C(=O)N[C@@H](Cc1ccc(O)cc1)C(N)=O)[C@@H](C)O)C(C)C)[C@@H](C)O
notes: also called 17R, 21P, 27P, 28P, 34P
On to B5, for which the half-inhibitory concentration (IC50) was determined as 42 pM.

B6: N^ε1-[2-[2-[2-[[(4S)-4-carboxy-4-(19-carboxynonadecanoylamino)butanoyl]amino]ethoxy]ethoxy]acetyl]-[Arg17,Pro21,Pro27,Pro29,Pro31]-h-amylin (peptide)
peptide: K([AEEA-γGlu-C20 diacid])CNTATCATQRLANFLRHSSPNFGAIPSPTPVGSNTY-NH2
modifications: disulfide 2-7; N-terminus assumed
SMILES: CC[C@H](C)[C@H](NC(=O)[C@H](C)NC(=O)CNC(=O)[C@H](Cc1ccccc1)NC(=O)[C@H](CC(N)=O)NC(=O)[C@@H]1CCCN1C(=O)[C@H](CO)NC(=O)[C@H](CO)NC(=O)[C@H](Cc1c[nH]cn1)NC(=O)[C@H](CCCNC(=N)N)NC(=O)[C@H](CC(C)C)NC(=O)[C@H](Cc1ccccc1)NC(=O)[C@H](CC(N)=O)NC(=O)[C@H](C)NC(=O)[C@H](CC(C)C)NC(=O)[C@H](CCCNC(=N)N)NC(=O)[C@H](CCC(N)=O)NC(=O)[C@@H](NC(=O)[C@H](C)NC(=O)[C@@H]1CSSC[C@H](NC(=O)[C@@H](N)CCCCNC(=O)COCCOCCNC(=O)CC[C@H](NC(=O)CCCCCCCCCCCCCCCCCCC(=O)O)C(=O)O)C(=O)N[C@@H](CC(N)=O)C(=O)N[C@@H]([C@@H](C)O)C(=O)N[C@@H](C)C(=O)N[C@@H]([C@@H](C)O)C(=O)N1)[C@@H](C)O)C(=O)N1CCC[C@H]1C(=O)N[C@@H](CO)C(=O)N1CCC[C@H]1C(=O)N[C@H](C(=O)N1CCC[C@H]1C(=O)N[C@H](C(=O)NCC(=O)N[C@@H](CO)C(=O)N[C@@H](CC(N)=O)C(=O)N[C@H](C(=O)N[C@@H](Cc1ccc(O)cc1)C(N)=O)[C@@H](C)O)C(C)C)[C@@H](C)O
notes: also called 17R, 21P, 27P, 29P, 31P
The molecule B6 displayed an IC50 of 30 pM. This IC50 and that of the molecule before are within 1.5-fold of each other.
